The source of these data is article PMC8428117, “Y chromosomal noncoding RNAs regulate autosomal gene expression via piRNAs in mouse testis”.

This series has as its target MIWI (mouse homologue of PIWI) (UniProt Q9JMB7 1-862). The series is described as follows: EMSA; shift abolished by MIWI antibody, not by Argonaute 3 antibody; competed by cold piR1; 20 mM HEPES (pH not stated), 3 mM MgCl2, 40 mM KCl, 5% glycerol, 2 mM DTT, 4 U RNase inhibitor; 5 ug MIWI in 25 ul; on ice, 30 min with probe (competitor/antibody 1 h before); 5% native PAGE. The note with it: protein: recombinant; tags: FLAG; label: 32P end label.

Chain of MIWI (mouse homologue of PIWI) (Q9JMB7 whole entry): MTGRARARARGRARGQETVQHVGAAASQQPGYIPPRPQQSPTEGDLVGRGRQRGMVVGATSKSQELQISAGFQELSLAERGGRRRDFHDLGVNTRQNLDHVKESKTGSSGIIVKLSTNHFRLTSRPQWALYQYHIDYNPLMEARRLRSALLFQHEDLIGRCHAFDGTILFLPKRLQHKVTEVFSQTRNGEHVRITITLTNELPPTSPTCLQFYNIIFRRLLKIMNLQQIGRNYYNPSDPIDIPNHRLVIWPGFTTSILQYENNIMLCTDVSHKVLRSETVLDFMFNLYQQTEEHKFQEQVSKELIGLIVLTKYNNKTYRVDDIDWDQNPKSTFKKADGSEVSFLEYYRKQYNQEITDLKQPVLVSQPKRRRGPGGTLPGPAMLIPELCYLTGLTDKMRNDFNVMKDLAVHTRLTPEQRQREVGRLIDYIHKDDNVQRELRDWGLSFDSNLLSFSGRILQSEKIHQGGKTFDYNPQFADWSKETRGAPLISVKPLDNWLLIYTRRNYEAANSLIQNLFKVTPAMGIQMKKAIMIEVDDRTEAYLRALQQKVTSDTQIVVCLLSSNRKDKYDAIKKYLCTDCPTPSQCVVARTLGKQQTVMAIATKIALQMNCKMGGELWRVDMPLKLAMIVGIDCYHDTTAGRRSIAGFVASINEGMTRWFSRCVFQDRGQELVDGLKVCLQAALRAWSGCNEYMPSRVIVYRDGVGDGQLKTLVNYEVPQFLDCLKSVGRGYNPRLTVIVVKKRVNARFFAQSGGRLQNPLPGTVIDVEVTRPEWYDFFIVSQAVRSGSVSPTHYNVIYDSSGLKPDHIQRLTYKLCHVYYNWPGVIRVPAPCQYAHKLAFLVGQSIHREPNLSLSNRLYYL

B1: Sod oligo (FJ541118) (ssRNA)
RNA: GAAGCAGAUGAGUAUAUG
With B1, the binding result is reported as “binds”.

B2: spot A4 oligo (FJ541077) (ssRNA)
RNA: UCAUUGGACAUAAACUGAAUUUUCCA
On to B2, for which the binding result is reported as “binds”.
